Substitutions are numbered along the chain they refer to. In names and notes the source's numbering stands.
B1: MtEfpA (EfpA from Mycobacterium tuberculosis), wild type, with C-terminal GFP and Strep-Tag II (natural protein)
chain: MTALNDTERAVRNWTAGRPHRPAPMRPPRSEETASERPSRYYPTWLPSRSFIAAVIAIGGMQLLATMDSTVAIVALPKIQNELSLSDAGRSWVITAYVLTFGGLMLLGGRLGDTIGRKRTFIVGVALFTISSVLCAVAWDEATLVIARLSQGVGSAIASPTGLALVATTFPKGPARNAATAVFAAMTAIGSVMGLVVGGALTEVSWRWAFLVNVPIGLVMIYLARTALRETNKERMKLDATGAILATLACTAAVFAFSIGPEKGWMSGITIGSGLVALAAAVAFVIVERTAENPVVPFHLFRDRNRLVTFSAILLAGGVMFSLTVCIGLYVQDILGYSALRAGVGFIPFVIAMGIGLGVSSQLVSRFSPRVLTIGGGYLLFGAMLYGSFFMHRGVPYFPNLVMPIVVGGIGIGMAVVPLTLSAIAGVGFDQIGPVSAIALMLQSLGGPLVLAVIQAVITSRTLYLGGTTGPVKFMNDVQLAALDHAYTYGLLWVAGAAIIVGGMALFIGYTPQQVAHAQEVKEAIDAGEL
notes: Forms an antiparallel dimer in LMNG-CHS; predominantly monomeric in DDM-CHS; No tag cleavage is described; also called MtEfpA-cGFP; MtEfpA-GFP; not shown: GFP, C-terminal, kept
B2: MtEfpA G377D mutant (natural protein)
chain: B1 chain with G377D
B3: MtEfpA G502D mutant (natural protein)
chain: B1 chain with G502D
B4: MtEfpA T324D mutant (natural protein)
chain: B1 chain with T324D
B5: MtEfpA L195D mutant (natural protein)
chain: B1 chain with L195D

Key:
cryo-EM structure = molecular target: the molecule itself; assay: cryo-EM structure
[1] = molecular target: the molecule itself; assay: SEC + other: negative-stain EM

Row | Protein | stoichiometry N (cryo-EM structure) | binding result [1]
1 | B1 | 2 | 
2 | B2 |  | binds
3 | B3 |  | binds
4 | B4 |  | binds
5 | B5 |  | binds

Source: publication PMC10802681, “Structures of the essential efflux pump EfpA from Mycobacterium tuberculosis reveal the mechanisms of substrate transport and small-molecule inhibition” (Research Square, 2024)
